How the values were obtained:
[1] = biological target: T1, human 4-1BB-Fc protein (Sino Biological) (human, UniProt Q07011 24-186); test: ELISA, plate coated with human 4-1BB-Fc at 0.1 ug/mL, detection with HRP-conjugated goat anti-human IgG
T1 construct: not shown: Fc part of the bought fusion protein

[2] = biological target: T2, human 4-1BB expressed on GloResponse NFkB-luc2/4-1BB Jurkat cells (Promega) (human, UniProt Q07011 24-255); test: cell-based or functional assay
[3] = biological target: T2, human 4-1BB expressed on GloResponse …; test: cell-based or functional assay; remark: listed apart in the source
[4] = biological target: T2, human 4-1BB expressed on GloResponse …; test: cell-based or functional assay; remark: listed apart in the source

T1 sequence (Q07011 24-186 limits assumed): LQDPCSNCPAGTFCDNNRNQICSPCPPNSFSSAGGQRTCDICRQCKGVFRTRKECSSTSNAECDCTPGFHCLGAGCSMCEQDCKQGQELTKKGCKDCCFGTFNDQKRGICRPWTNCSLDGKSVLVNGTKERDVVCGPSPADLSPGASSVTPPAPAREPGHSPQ
T2 sequence (Q07011 24-255 limits assumed): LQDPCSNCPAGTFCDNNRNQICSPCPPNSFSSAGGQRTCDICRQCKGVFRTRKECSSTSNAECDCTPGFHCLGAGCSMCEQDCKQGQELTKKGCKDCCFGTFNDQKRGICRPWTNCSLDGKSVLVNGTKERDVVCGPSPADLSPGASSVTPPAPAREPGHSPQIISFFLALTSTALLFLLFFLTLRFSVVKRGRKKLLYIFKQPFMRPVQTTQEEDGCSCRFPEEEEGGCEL

B1: 1A10 (antibody, human IgG4 S228P, lambda, V domains shown)
VH: EVQLLESGGGLVQPGGSLRLSCAASGFTFSSYDMSWVRQAPGKGLEWVSWISYSGGSIYYADSVKGRFTISRDNSKNTLYLQMNSLRAEDTAVYYCARDGQRNSMREFDYWGQGTLVTVSS
VL: QSVLTQPPSASGTPGRRVTISCSGSSSNIGNNYVTWYQQLPGTAPKLLIYADSHRPSGVPDRFSGSKSGTSASLAISGLRSEDEADYYCATWDYSLSGYVFGGGTKLTVLG
notes: also called anti-4-1BB antibody 1A10
**Q.** How did the EC50 [1] turn out when B1 was run?
**A.** The EC50 was 0.24 nM.

B2: 1A12 (antibody, human IgG4 S228P, lambda, V domains shown)
VH: EVQLLESGGGLVQPGGSLRLSCAASGFTFSGYDMSWVRQAPGKGLEWVSVIYPDDGNTYYADSVKGRFTISRDNSKNTLYLQMNSLRAEDAAVYYCAKHGGQKPTTKSSSAYGMDGWGQGTLVTVSS
VL: QSVLTQPPSASGTPGRRVTISCSGSSSNIGNNYVTWYQQLPGTAPKLLIYADSHRPSGVPDRFSGSKSGTSASLAISGLRSEDEADYYCATWDYSLSGYVFGGGTKLTVLG
notes: also called anti-4-1BB antibody 1A12
**Q.** With B2 as the binder, how does the EC50 [1] read?
**A.** The EC50 was 0.18 nM.

B3: AB41 (antibody, human IgG4 S228P, kappa, V domains shown)
VH: QVQLQQSGAEVIKPGASVKLSCKASGYTFSSYWMHWVRQAPGQGLEWIGEINPGNGHTNYNEKFKSRATLTGDTSTSTVYMELSSLRSEDTAVYYCARSFTTARAFAYWGQGTLVTVSS
VL: DIVMTQSPAFLSVTPGEKVTITCRASQTISDYLHWYQQKPDQAPKLLIKYASQSISGIPSRFSGSGSGTDFTFTISSLEAEDAATYYCQDGHSFPPTFGQGTKLEIKR
notes: also called anti-4-1BB antibody AB41
**Q.** For B3, which EC50 [1] is on record?
**A.** Its EC50 is 0.2 nM.

B4: Urelumab (antibody, V domains shown)
VH: QVQLQQWGAGLLKPSETLSLTCAVYGGSFSGYYWSWIRQSPEKGLEWIGEINHGGYVTYNPSLESRVTISVDTSKNQFSLKLSSVTAADTAVYYCARDYGPGNYDWYFDLWGRGTLVTVSS
VL: EIVLTQSPATLSLSPGERATLSCRASQSVSSYLAWYQQKPGQAPRLLIYDASNRATGIPARFSGSGSGTDFTLTISSLEPEDFAVYYCQQRSNWPPALTFGGGTKVEIK
**Q.** Which “fold difference in EC50 with against without FcγRIIb CHO-K1 cells” value [2] does the source give for B4 here?
**A.** Its value is 2.2 fold.

**Q.** And the “fold difference in top RLU with against without FcγRIIb CHO-K1 cells” value [2]?
**A.** Its value is 13.5 fold.

**Q.** And the “EC50, FcγRIIb-dependent 4-1BB bioassay” value [3]?
**A.** The value was 0.236 nM.

**Q.** What about the “Fold of induction (RLU), FcγRIIb-dependent 4-1BB bioassay” value [3] of the same binder?
**A.** Its value is 196 fold.

**Q.** What about the “EC50, FcγRIIb-independent 4-1BB bioassay” value [4] of the same binder?
**A.** The value was 0.52 nM.

**Q.** And the “Fold of induction (RLU), FcγRIIb-independent 4-1BB bioassay” value [4]?
**A.** The value was 15.6 fold.
